The series concerns the molecule itself. Nature of the series: SEC-MALS; Superdex 75 10/300, 20 mM Tris-HCl pH 8, 300 mM NaCl; loaded at 2 mg/ml (RBPMS2-Nter) or 4 mg/ml (RBPMS2-Nter-L49E); monomer to dimer. In general terms: SEC sorts molecules by how far they enter the pores of the column.

B1: RBPMS2-Nter (human RBPMS2 residues 27-117, RRM domain) (domain or fragment)
chain: not shown
notes: 15N- or 15N/13C-labelled for NMR; also called pET22-RBPMS2-Nter; RRM domain of RBPMS2; source: E. coli BL231DE3 (so in the source), purified (His Trap FF)
On to B1, for which the “stoichiometry N” value is 2.

What is called stoichiometry N is a count of units in the complex or per binding partner.

The values are drawn from PMC4150794, “Homodimerization of RBPMS2 through a new RRM-interaction motif is necessary to control smooth muscle plasticity” (Nucleic Acids Research, 2014).
